# Biological target: T1, Rat TRPV2 (transient receptor potential vanilloid 2 channel), full length, C-terminal 1D4 tag (rat), Q9WUD2
# T1 chain: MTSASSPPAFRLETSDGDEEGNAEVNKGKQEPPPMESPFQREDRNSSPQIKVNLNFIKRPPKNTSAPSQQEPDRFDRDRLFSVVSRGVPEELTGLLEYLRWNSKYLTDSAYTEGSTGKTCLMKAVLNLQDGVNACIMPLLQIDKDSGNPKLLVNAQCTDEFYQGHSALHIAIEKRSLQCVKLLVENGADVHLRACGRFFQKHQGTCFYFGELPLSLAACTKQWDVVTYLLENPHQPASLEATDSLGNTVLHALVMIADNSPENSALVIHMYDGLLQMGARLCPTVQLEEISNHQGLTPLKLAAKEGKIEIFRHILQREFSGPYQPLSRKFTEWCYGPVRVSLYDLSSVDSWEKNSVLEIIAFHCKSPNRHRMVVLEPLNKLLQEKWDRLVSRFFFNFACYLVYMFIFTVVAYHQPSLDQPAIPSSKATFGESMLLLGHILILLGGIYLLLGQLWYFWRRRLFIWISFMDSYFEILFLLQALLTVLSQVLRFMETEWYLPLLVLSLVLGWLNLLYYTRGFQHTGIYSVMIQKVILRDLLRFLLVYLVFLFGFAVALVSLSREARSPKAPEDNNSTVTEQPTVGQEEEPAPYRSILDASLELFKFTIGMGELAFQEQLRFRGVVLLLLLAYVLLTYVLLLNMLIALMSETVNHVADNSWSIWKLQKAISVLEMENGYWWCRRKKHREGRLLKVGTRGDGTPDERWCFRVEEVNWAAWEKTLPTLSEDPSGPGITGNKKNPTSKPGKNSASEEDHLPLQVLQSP
# Test: high-speed atomic force microscopy (HS-AFM); TRPV2 reconstituted into soy polar lipid membranes (LPR 0.5-0.7) on mica; imaging buffer 20 mM Hepes pH 8.0, 150 mM NaCl; contacts between neighbouring tetramers scored as connected or not in binarised frames; dwell times fitted with a single exponential; thick continuous connections excluded
# Details: remark: other sources report otherwise
binder,measurement,value
"Rat TRPV2 (transient receptor potential vanilloid 2 channel), full length, C-terminal 1D4 tag, Q9WUD2 1-761 (natural protein) MTSASSPPAFRLETSDGDEEGNAEVNKGKQEPPPMESPFQREDRNSSPQIKVNLNFIKRPPKNTSAPSQQEPDRFDRDRLFSVVSRGVPEELTGLLEYLRWNSKYLTDSAYTEGSTGKTCLMKAVLNLQDGVNACIMPLLQIDKDSGNPKLLVNAQCTDEFYQGHSALHIAIEKRSLQCVKLLVENGADVHLRACGRFFQKHQGTCFYFGELPLSLAACTKQWDVVTYLLENPHQPASLEATDSLGNTVLHALVMIADNSPENSALVIHMYDGLLQMGARLCPTVQLEEISNHQGLTPLKLAAKEGKIEIFRHILQREFSGPYQPLSRKFTEWCYGPVRVSLYDLSSVDSWEKNSVLEIIAFHCKSPNRHRMVVLEPLNKLLQEKWDRLVSRFFFNFACYLVYMFIFTVVAYHQPSLDQPAIPSSKATFGESMLLLGHILILLGGIYLLLGQLWYFWRRRLFIWISFMDSYFEILFLLQALLTVLSQVLRFMETEWYLPLLVLSLVLGWLNLLYYTRGFQHTGIYSVMIQKVILRDLLRFLLVYLVFLFGFAVALVSLSREARSPKAPEDNNSTVTEQPTVGQEEEPAPYRSILDASLELFKFTIGMGELAFQEQLRFRGVVLLLLLAYVLLTYVLLLNMLIALMSETVNHVADNSWSIWKLQKAISVLEMENGYWWCRRKKHREGRLLKVGTRGDGTPDERWCFRVEEVNWAAWEKTLPTLSEDPSGPGITGNKKNPTSKPGKNSASEEDHLPLQVLQSP",connection lifetime time constant,2.2 s

# Reference: publication PMC10516966
